These results are taken from US20090227489A1, “STAT3 Agonists and Antagonists and Therapeutic Uses Thereof” (Johns Hopkins University, priority 2000, published 2009).

This assay concerns VEGF. The assay can be described thus: Expression of the endogeneous VEGF gene in B16 tumor cells (Western blot). In kind it is cell-based, murine. To be noted: ASO at 100 nM, 200 nM, or 300 nM. The method, then: FIG. 13. Inhibition of Stat3 signaling in tumor cells reduces the expression of the endogeneous VEGF gene. B16 tumor cells were transfected with either: A. Stat3β; or B. Stat3 anti-sense oligonucleotides (ASO) at 100 nM, 200 nM, or 300 nM.
A plasmid construct containing the luciferase cDNA in the absence of the VEGF promoter was also transfected into 3T3 fibroblasts. Both of B16 and SCK tumor cells harbor constitutively activated Stat3. In the absence of Stat3β, VEGF promoter activity was readily detectable in both tumor cells as indicated by the high expression levels of luciferase protein. […] The inhibitory effect of Stat3β on the transcriptional activity of the VEGF promoter was also observed in the tumor cells transfected with Stat3 anti-sense oligonucleotides (FIG. 12A-B). It was also shown that blocking Stat3 signaling in tumor cells inhibits the expression of the endogeneous VEGF gene. B16 tumor cells were transiently transfected with Stat3β and the expression of endogeneous VEGF gene was determined at the RNA and protein levels.

B1: Stat3β: dominant-negative Stat3 variant, truncated form lacking the transactivation domain; delivered by the pIRES-Stat3β expression vector (protein)
chain: AQWNQLQQLDTRYLEQLHQLYSDSFPMELRQFLAPWIESQDWAYAASKESHATLVFHNLLGEIDQQYSRFLQESNVLYQHNLRRIKQFLQSRYLEKPMEIARIVARCLWEESRLLQTAATAAQQGGQANHPTAAVVTEKQQMLEQHLQDVRKRVQDLEQKMKVVENLQDDFDFNYKTLKSQGDMQDLNGNNQSVTRQKMQQLEQMLTALDQMRRSIVSELAGLLSAMEYVQKTLTDEELADWKRRQQIACIGGPPNICLDRLENWITSLAESQLQTRQQIKKLEELQQKVSYKGDPIVQHRPMLEERIVELFRNLMKSAFVVERQPCMPMHPDRPLVIKTGVQFTTKVRLLVKFPELNYQLKIKVCIDKDSGDVAALRGSRKFNILGTNTKVMNMEESNNGSLSAEFKHLTLREQRCGNGGRANCDASLIVTEELHLITFETEVYHQGLKIDLETHSLPVVVISNICQMPNAWASILWYNMLTNNPKNVNFFTKPPIGTWDQVAEVLSWQFSSTTKRGLSIEQLTTLAEKLLGPGVNYSGCQITWAKFCKENMAGKGFSFWVWLDNIIDLVKKYILALWNEGYIMGFISKERERAILSTKPPGTFLLRFSESSKEGGVTFTWVEKDISGKTQIQSVEPYTKQQLNNMSFAEIIMGYKIMDATNILVSPLVYLYPDIPKEEAFGKYCRPESQEHPEADPGAAPYLKTKFICVTFIDAVWK
For the molecule B1, the “expression of the endogeneous VEGF gene” value is “downregulates expression of the endogeneous VEGF gene”.
